Measurements as given in patent US20140287419A1, “Compositions Having Dicamba Decarboxylase Activity and Methods of Use” (priority 2013, published 2014).
Changes are numbered by the printed parent chain.

B1: SEQ ID NO:26: o-pyrocatechuate decarboxylase, Variovorax paradoxus EPS (protein, listed as Variovorax paradoxus)
chain: MATHMAPMKNKIALEEHFAIDLTIADSQVYARPEVWQGLKSNLLDFEQQRLEKMDEWGTEFSILSLNSPAVQGIPDAKRAIEVAQRANDVLAEQVKRHPTRFGGFAALPMQDPEASARELERCVNQLGFHGFLVNGFSQVGDENIVVYYDDARFNDFWTAAAALKKPFYMHPRDPLLAREPIYDGAHWLTGPTWAFAMETAIHALRLMSSGMFDRHPALQMILGHFGEGIPFNIWRVDHILRKGRRGMPCDKEIGEYLRSNVHITTSGNFRTPTLLSTMLEVGSDRIMYSVDYPFEKHEDAARWFDTCEISENDRQKIGRDNARKLFGLK
B2: SEQ ID NO:22: possible o-pyrocatechuate decarboxylase, Staphylococcus epidermidis M23864: W1 (protein, listed as Staphylococcus epidermidis)
chain: MAKSINFEEHYVVDDIQKETMKYMSSDPNGVPMQTMLKGLEQKSGFTNADDITKHDERIKFMDEHDVEMQVLSYGNGAPSNLEGERAIELCQQANDTLAKYVNEHPDRFVGFATLPINEPQAAVEEFKRCIKELGFKGALIMGHPKNGFLDQDQYDDLFATAEALNVPIYLHPSPVQSDVYQAYYKGNYSDVTAATFACFGYGWHVDVGIHAIHLVLSGVFDRHPNLNMIIGHWGEFVPFFLERMDDILFADHLEHPISYYFKNNFYITPSGMLTKPQFDLVKAEVGVDRILYSADYPYVEPDKLGTFLDELDLTEEEKEKISYKNGAKLLGLEK
B3: 42 (protein)
chain: MAQGKIALEEHFAIPDTLQDSAGFVPGDYWKELSARLLDIHEQRLMQMDAYGIEKMILSLNAPAVQAIPDKAKALEISRRANDFLAEQCARNPDRFLGFAALPLQDPDAATAELQRCVKTLGFVGALVNGFSQEGDGVTPLYYDLPQYRGFWAEVEKLAVPFYLHPRNPLPQDSRIYAGHPWLMGPTWAFAQETAVHALRLVGSGLFDDHPALRIILGHMGEGLPYMMWRIDNRNAWVKVAPNYPAKRRIADYFNENFYITTSGNFRTQSLVDAMLEIGADRILFSTDWPFENIDHASDWFDTATISEADRLKIGRTNAATLFNLES
modifications: Agrobacterium radiobacter
B4: 35 (protein)
chain: MAFKASRKIALEEHFAIDATVQDSAGFVPPSYWAELKRRLLDIHDRRIDEMDRNGVELMVLSLNAPTVQAVPNIKDAYDLSRRANDFLAEQIVKRPERFKGFAALPMQSPDLAARELERCVKELNFVGALVNGFSQVEESGTALYYDLPQYRQFWSVVQALDVPFYLHPRNPLPAHAPIYEGHPWLLGPTWAFGQETAVHALRLMGSGLFDEYPELKIILGHMGEGLPYSMWRIDNRNAWVETQPNYPAKKRIAEYFHKNFWLTTSGNFRTQTLIDAMLEIGSDRILFSTDWPFENVDHAAQWFDDAAISENDRIKIARTNAARLFKLEP
modifications: Burkholderia sp
B5: 44 (protein, listed as Mycobacterium avium)
chain: MARIITVEEHFQHPEVSARVAELTGPAVEGLAEFGNAFSLDPDSTARLGGNRLAHMDQVGIDVQVVSHGNGSPGTLQHPEAVELCRRVNNDLAAQIAENPDRFRGFATLPLYDPAAAAEELRRCVGDLGFVGALIAGSYDGLFLDDERFDPILTAAEAVDFPIYVHPGLPEAPVSQRYYAGSWPASVHMMFSGPAFGWHAEAGIHIVRLILSGALDRHPTLKLLSGHWGELAAFYLERLDETLGLLPTGLERAPSDYYRQQVWITPSGMYNQNQLNFMTAELGAQRIIYSEDFPYVVRDNVSTFLEQAGLSEADTHAIAHTNAEALLRI
B6: 33 (protein, listed as Rhizobium leguminosarum)
chain: MAQGKIALEEHFAIPETLQDSAGFVPGDYWKELSARLLDIQEKRLRLMDAHGIEKMILSLNAPAVQAIPDRAKALEISRRANDFLAEQCVKNPNRFLGFAALPLQDPDAATQELQRCVTTMGFVGALVNGFSQEGDGTTPLYYDLPQYRSFWAEVEKLNVPFYLHPRNPLPQDSRIYAGHSWLMGPTWAFAQETAVHALRLMGSGLFDEHPALRIIVGHMGEGLPYMMWRIDNRNAWVKVEKSYPAKRPIADYFNENFYITTSGNFRTQSLIDAMLEIGADRILFSADWPFENIDHAANWFDSATISEADRLKIGRTNAVSLFKLDR
B7: 43 (protein, listed as Rhizobium leguminosarum)
chain: B6 chain with K31T, E42D, A50T, R71K, L75V, S150P, N159D, I294V
B8: 40 (protein, listed as Rhodococcus jostii)
chain: MAQGKIALEEHFAIPETLNDSAGFVPGTYWDELQARLLDIQDVRLKLMDEHNIETMILSLNAPAVQAIPERERAIDIARRANDVLAEECAKRPDRFRGFAALPLQDPDAAAEELRRCVTELGFVGALVNGFSQSATVDGGSTPLYYDLPRYRPFWAEVERLDVPFYLHPRNPLNQDARIYEGHPWLLGPTWAFAQETAVHALRLMASGLFDEHPGLRIVLGHMGEGIPAMLWRIDHRNAWVDVPPAYPAKRRMVDYFTENFFVTTSGNFRTQTLIDLLLELGSERVMFSTDWPFENINHAAEWFDAASISEADRLKIGRTNAATLFKLDR
B9: 34 (protein)
chain: MAQGKIGLEEHFAIPETLNDSAGFVPGDYWKELSRRLLDIQDDRLRQMDENGMEMMLLSLNAPAVQAVPDRKQACELAVRANDFLAEQVSRRPDRFQALAALPLQDPDFATVELTRCVNELGMRGALVNGFSQIDTPDNVVYYDAPQYASFWAAVEKLDVPFYLHPRNPIASWAQIYDGHPWLLGPTWAFGQETAVHALRLMASGLFDRHPALQIVLGHLGEGLPYSLWRIDNRNAWVKAPKTHPAKKTFRHYFQQNFHLTTSGNFHNQTLIDAILEIGADRILFSTDWPFENIDHAAKWFDSASISEADRTKIGRTNAMKLFKLVA
modifications: Cupriavidus necator
B10: 36 (protein, listed as Agrobacterium sp.)
chain: MAQGKVALEEHFAIPETLQDSAGFVPGDYWTELQHRLLDIQDTRLKLMDAHGIETMILSLNAPAVQAIPDKTKAIEIARRANDALAEECAKRPNRFLAFAALPLQDPDAATQELQRCVNDLGFVGALVNGFSQEGDGQIPLYYDLPQYRPFWGEVEKLDVPFYLHPRNPLPQDSRIYDGHPWLLGPTWAFAQETAVHALRLMASGLFDEHPRLNIILGHMGEGLPYMMWRIDHRNAWVKLPPRYPAKRRFVDYFNENFHITTSGNFRTQTLIDAILEIGADRILFSTDWPFENIDHASDWFHATSIAEADRVKIGRTNARRLFKLDGR
B11: 39 (protein, listed as Agrobacterium fabrum)
chain: B10 chain with Y29C, N94D, Q115R, I139T, N214D
B12: 3 (protein, listed as Lactobacillus plantarum)
chain: MAKLITVEEHFESAAVTAAMRQAVGNAVLPAVSPALRQYMRDNLPSPAIMQDTQHERLAFMAQYGIDMQVLSYGNSSPQNLSPEQAVPLSQLANDELAKAVVAHPDRYAGLAVLPVGDPQAAVAELNRAVTTLGLRGVLLKGNYQNKFFDEPFFLPIFEAAAALDVPVYFHPSFIPQAVTSHYFESNQWSDVVTGILSSAGYGWHMDVGIQVIRMIASGIFDKLPGLKLISGHWGELVPLFLERLDDELTTYTDLQYPFSTYYRHNVYVTPSGILSAPQLQFMLAEMGADHLMYSIDYPYKQPETSGSFLDIADLTDEQRAQIAFGTATTLFKL
B13: 38 (protein, listed as Variovorax paradoxus)
chain: MAQGKIGLEEHFAIPQTLQDSAGFVPGVYWKELSSRLLDIHDGRLRQMDEHGMEMMILSLNAPAVQAVADPVKAYELAVRANDFLAEQVAKRPDRFQAFAALPMQDPEKATQELERCMSVLGFRGALVNGFSQVGTPDNVAYYDAPQYAPFWAAAERLDAPFYLHPRNPIASWAQIYEGHPWLLGPTWAFAQETAVHALRLMASGLFDRHPGLKIILGHLGEGLPYNMWRVDHRNAWVKAPKGYPAKRKLCEYFQENFYLTTSGNFRTQTLIDAMLEVGSDRILFSTDWPFENIDHASNWFNDTSISEADRKKIGRTNAMSLFKLA
B14: 37 (protein, listed as Burkholderia gladioli)
chain: MATFSNVKKIALEEHFAIAETIEDSAGFVPPDDWVELRGRLLDIQERRLAEMDRAGIELMVLSLNAPAVQAIRDPRQAVELARRANDYLAEQVARRPDRFRAFAALPMQAPEQAIREAERCVRELGFVGALVNGFSEAEDGAELYYDLPRYRPFWAALEALEVPFYLHPRNPLAGRAPIYDGHSWLMGPTWAFGQETAVHALRLMGSGLFDAHPRLQIILGHMGEGLPYSMWRVDNRNAWVSAKPNYPAEKPIAEYFRNNFWLTTSGNFRTQTLIDAMLEIGSDRILFSADWPFENMDHAADWFDHASISENDRIKIGRGNAERLLKLGR

Test: 14C assay with IPTG-induced recombinant E. coli cells (14CO2 capture from [14C]-carboxyl-labeled dicamba)
Conditions: E. coli cell assay, 108 sequences tested

| Molecule | decarboxylation activity of dicamba |
| --- | --- |
| B1 | showed decarboxylation activity of dicamba |
| B2 | showed decarboxylation activity of dicamba |

Same assay, conditions: IPTG-induced recombinant E. coli cells; [14C]-carboxyl-labeled dicamba; 14CO2 capture

| Molecule | Dicamba Decarboxylase Activity |
| --- | --- |
| B3 | Low |
| B4 | High |
| B5 | High |
| B6 | High |
| B7 | High |
| B8 | Low |
| B9 | High |
| B10 | High |
| B11 | No |
| B12 | Low |
| B13 | Low |
| B14 | Low |

Same assay, conditions: dicamba decarboxylation activity of the protein of the given SEQ ID NO

| Molecule | Enzymatic Detection level |
| --- | --- |
| B3 | Low |
| B4 | High |
| B5 | High |
| B6 | High |
| B7 | High |
| B8 | Low |
| B9 | High |
| B10 | High |
| B11 | No |
| B12 | Low |
| B13 | Low |
| B14 | Low |
